Here are results for 2 molecules from article PMC3278529 (Free radical biology & medicine, 2011).

The target of one assay is p47^phox (Homo sapiens, UniProt P14598). Nature of the assay: ELISA of p47phox-p22phox peptide interaction. It counts as binding.
The next assay deals with T1, C196A-p47^phox (human, UniProt P14598 1-390, C196A).
T1 sequence (looked up): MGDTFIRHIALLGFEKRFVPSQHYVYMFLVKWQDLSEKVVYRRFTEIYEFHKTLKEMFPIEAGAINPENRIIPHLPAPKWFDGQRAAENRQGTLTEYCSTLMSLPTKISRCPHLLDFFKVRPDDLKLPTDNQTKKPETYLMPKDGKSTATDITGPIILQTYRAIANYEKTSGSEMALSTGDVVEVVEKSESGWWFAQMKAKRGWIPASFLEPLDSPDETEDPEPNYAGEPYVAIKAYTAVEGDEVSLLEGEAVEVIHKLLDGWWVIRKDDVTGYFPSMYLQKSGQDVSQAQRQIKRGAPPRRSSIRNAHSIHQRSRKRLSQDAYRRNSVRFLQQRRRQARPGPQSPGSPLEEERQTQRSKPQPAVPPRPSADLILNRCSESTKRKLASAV
Nature of the assay: ELISA.

In the next assay the target is T2, C378A-p47^phox (human, UniProt P14598 1-390, C378A).
T2 sequence (looked up): T1 sequence (looked up) with A196C, C378A
In words: ELISA. For orientation: In an ELISA, binding on a coated surface is turned into a signal by an enzyme label.

The next assay deals with T3, C111A-p47^phox (human, UniProt P14598 1-390, C111A).
T3 sequence (looked up): T1 sequence (looked up) with C111A, A196C
Nature of the assay: ELISA.

A further assay deals with T4, C98G-p47^phox (human, UniProt P14598 1-390, C98G).
T4 sequence (looked up): T1 sequence (looked up) with C98G, A196C
Nature of the assay: ELISA.

In another assay the target is T5, His-p47^phox wild type (human, UniProt P14598 1-390).
T5 sequence (looked up): T1 sequence (looked up) with A196C
Nature of the assay: ELISA.

Changes are numbered by the printed parent chain. The star is where a group is joined. Biotin = O=C1N[C@H]2[C@H](CS[C@H]2CCCCC(=O)*)N1

p47^phox, sequence (P13498 2-195): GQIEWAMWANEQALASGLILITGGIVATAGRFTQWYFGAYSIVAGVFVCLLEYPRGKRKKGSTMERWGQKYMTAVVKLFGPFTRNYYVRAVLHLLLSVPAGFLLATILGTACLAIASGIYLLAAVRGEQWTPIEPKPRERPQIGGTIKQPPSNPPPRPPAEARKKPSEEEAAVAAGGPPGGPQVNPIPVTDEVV
p47^phox, sequence (P14598 whole entry): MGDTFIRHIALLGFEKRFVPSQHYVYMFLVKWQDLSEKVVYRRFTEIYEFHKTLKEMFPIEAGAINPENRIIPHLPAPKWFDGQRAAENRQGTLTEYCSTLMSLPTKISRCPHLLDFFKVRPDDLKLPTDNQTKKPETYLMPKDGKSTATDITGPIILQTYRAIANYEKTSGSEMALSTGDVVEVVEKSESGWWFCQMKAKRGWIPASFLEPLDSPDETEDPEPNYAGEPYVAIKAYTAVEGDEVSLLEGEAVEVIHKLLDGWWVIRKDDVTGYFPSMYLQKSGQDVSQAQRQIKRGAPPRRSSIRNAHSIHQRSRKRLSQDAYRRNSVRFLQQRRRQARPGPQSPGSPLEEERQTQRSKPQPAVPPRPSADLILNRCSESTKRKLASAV

`O=C1C=CC(=O)c2ccccc21` [1,4-naphthoquinone] returned an IC50 against p47^phox of 700 nM.

B1: proline-rich p22^phox peptide (biotin-p22^phox) (peptide)
peptide: Biotin-SGSGPPSNPPPRPPAEARK-NH2
SMILES: C[C@H](NC(=O)[C@H](CCC(=O)O)NC(=O)[C@H](C)NC(=O)[C@@H]1CCCN1C(=O)[C@@H]1CCCN1C(=O)[C@H](CCCNC(=N)N)NC(=O)[C@@H]1CCCN1C(=O)[C@@H]1CCCN1C(=O)[C@@H]1CCCN1C(=O)[C@H](CC(N)=O)NC(=O)[C@H](CO)NC(=O)[C@@H]1CCCN1C(=O)[C@@H]1CCCN1C(=O)CNC(=O)[C@H](CO)NC(=O)CNC(=O)[C@H](CO)NC(=O)CCCC[C@@H]1SC[C@@H]2NC(=O)N[C@@H]21)C(=O)N[C@@H](CCCNC(=N)N)C(=O)N[C@@H](CCCCN)C(N)=O
Regarding B1, the binding result with C196A-p47^phox, in the assay with C378A-p47^phox, with C111A-p47^phox, in the assay with C98G-p47^phox and in the assay with His-p47^phox wild type was “binds” throughout.

What is called IC50 is the concentration needed to halve the response being measured. Higher therefore signals lower potency.
